Two substances from publication doi:10.1101/2022.09.15.508177 can be followed below.

The target in experiment [1] is CTCF (CCCTC-binding factor), full-length, wild type, C-terminal MBP-Flag tag (human) (UniProt P49711).
Experiment [2] has as its target CTCF(Y226A/F228A) (human) (UniProt P49711). In words: single-molecule co-localisation on DNA curtains.
Experiment [3] concerns the target CTCF truncation mutant that only includes the 11 Zn-fingers (human). In words: single-molecule co-localisation on DNA curtains.
In experiment [4] the target is CTCF (CCCTC-binding factor), full-length, wild type, C-terminal MBP-Flag tag (human) (UniProt P49711). Description: single-molecule co-localisation on DNA curtains.

CTCF truncation mutant that only includes the 11 Zn-fingers (human), sequence (P49711 266-577, stated change not applied): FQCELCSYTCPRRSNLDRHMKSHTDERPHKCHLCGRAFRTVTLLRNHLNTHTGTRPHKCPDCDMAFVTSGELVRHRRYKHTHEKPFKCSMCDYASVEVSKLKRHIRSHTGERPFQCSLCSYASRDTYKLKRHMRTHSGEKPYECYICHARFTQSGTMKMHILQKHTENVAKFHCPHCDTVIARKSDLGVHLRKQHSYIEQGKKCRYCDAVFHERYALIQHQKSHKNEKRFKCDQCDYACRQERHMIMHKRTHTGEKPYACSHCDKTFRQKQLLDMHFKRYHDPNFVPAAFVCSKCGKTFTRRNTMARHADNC

In experiment [1], “cohesin-NIPBL^C (SMC1, SMC3, RAD21, STAG1 with NIPBL^C), wild type (from UniProt Q14683;Q9UQE7;O60216;Q8WVM7;Q6KC79) (complex)” came in with a cohesin velocity after non-permissive (CTCF^N) collision of 0.2 bp s^-1 and a cohesin velocity after permissive (CTCF^C) collision of 1.42 bp s^-1. The percent co-localised in experiment [2] was less than 50%. This substance yielded a percent co-localised in experiment [3] of less than 50%.

Regarding “cohesin-NIPBL^C with STAG1(W337A/F347A) (from UniProt Q14683;Q9UQE7;O60216;Q8WVM7;Q6KC79) (complex)”, in experiment [4], the percent of CTCF^N foci that retained cohesin turned out to be 47%.
